Source: the Human Domainome abundance scans (Beltran et al. 2025)

B1: Chromodomain-helicase-DNA-binding protein 5, residues 411 to 463; numbered along this chain, Q8TDI0 (parent)
chain: EEDDHMEFCRVCKDGGELLCCDACPSSYHLHCLNPPLPEIPNGEWLCPRCTCP
B2: Pyruvate dehydrogenase protein X component, mitochondrial, residues 181 to 227; numbered along this chain, O00330 (parent)
chain: RFRLSPAARNILEKHSLDASQGTATGPRGIFTKEDALKLVQLKQTGK

Variants of: B1
Experiment: abundance fitness (aPCA) (normalised: wild type 0, dead -1); higher = more abundant; growth selection in yeast, the domain comes from the species named
Settings: Homo sapiens

Abundance fitness, by site and new letter:
D3: R 0.14, C -0.763, S 0.155, Q 0.105, T 0.205, E 0.136, G 0.105, H -0.015, A 0.028, F 0.357, N 0.168, I 0.36, Y 0.189, V 0.114
E2: C -0.398, I 0.392, V -0.125, G -0.131, W -0.314, S -0.062, D -0.565, K -0.157, Q -0.224, A -0.194, R -0.042, T 0.011, M -0.669, P -0.228, L -0.038, H -0.261
D4: C 0.203, E -0.131, R 0.048, W 0.005, T 0.216, N 0.288, Y 0.252, L 0.11, K 0.184, H 0.17, I 0.184, P 0.024, A -0.186, F 0.263, G -0.425, S -0.081, V -0.14, M 0.156
H5: S -0.197, I -0.02, F 0.067, M -0.223, K 0.023, A -0.26, G -0.246, R -0.089, N 0.117, C -0.319, V -0.5, D -0.177, E -0.476, T -0.065, Y -0.058, W -0.214, L -0.223, Q -0.028
M6: V -0.077, R -0.045, Y -0.401, F 0.084, S -0.233, C -0.069, D -0.228, N 0.135, H -0.279, K 0.172, G -0.09, L -0.121, P -0.03, W -0.174, E -0.14, I 0.012, T 0.136, A 0.059
E1: C -0.893, A -0.518, N 0.264, R -0.554, P -0.803, I 0.425, K 0.044, D -0.455, G -0.304
E7: M -0.378, F -0.224, K -0.316, Q -0.332, R -0.027, I -0.123, L -0.131, N -0.07, C 0.095, P -0.368, A -0.031, H -0.278, D 0.031, G -0.079

Variants of: B2
Experiment: as above
Settings: Homo sapiens

Abundance fitness of substitutions, site by site:
T45: L -0.146, H -0.189, M -0.211, R -0.023, Q -0.209, W -0.276, C -0.217, I -0.428, N 0.096, D 0.07, S 0.167, F -0.147, K -0.379, V -0.156, P -0.333, G 0.166
Q44: H -0.152, M -0.389, R -0.14, Y -0.028, P -0.516, F -0.328, K 0.114, D -0.262, E 0.038, I 0.039, W -0.641, V -0.133, N -0.337, T -0.451, S -0.068, L -0.131
K47: Y 0.095, R -0.293, M 0.312, E 0.284, H -0.156, N -0.751, T -0.774, C -0.003, Q 0.539, D -0.532
G46: Y 0.219, L -0.268, M -0.042, A -0.323, S -0.05, D -0.343, I -0.689, Q 0.249, C 0.022, R -0.105, F -0.464, H 0.38, P -0.469, K -0.375, E 0.122, T -0.037, V -0.207, W -0.553
